Assay results from US7173007.

Biological target: T1, recombinant full-length hCAP18/LL-37 (residues 31-170)
T1 chain: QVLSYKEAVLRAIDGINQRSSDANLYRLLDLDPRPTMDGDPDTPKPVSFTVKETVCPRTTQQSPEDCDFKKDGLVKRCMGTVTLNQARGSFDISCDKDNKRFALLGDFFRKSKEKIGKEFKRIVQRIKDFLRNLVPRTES

B1: human neutrophil elastase (Calbiochem) (protein)
chain: IVGGRRARPHAWPFMVSLQLRGGHFCGATLIAPNFVMSAAHCVANVNVRAVRVVLGAHNLSRREPTRQVFAVQRIFENGYDPVNLLNDIVILQLNGSATINANVQVAQLPAQGRRLGNGVQCLAMGWGLLGRNRGIASVLQELNVTVVTSLCRRSNVCTLVRGRQAGVCFGDSGSPLVCNGLIHGIASFVRGGCASGLYPDAFAPVAQFVNWIDSIIQ
For B1, the “proteolytic processing of hCAP18/LL-37 (SDS-PAGE and immunoblot)” value was “Elastase treatment generated a band migrating at the same size as synthetic LL-37, and a band at 14 kDa”.
